Laboratory results reported in patent US6022720A, “Bax protein channel formation” (Glaxo Wellcome Inc., priority 1997, dated 2000).

How the values were obtained:
sympathetic neurons = assay: Lytic effects of added protein on sympathetic neurons; format: cell-based; conditions: coaddition of control protein with 10 μM Bax
Protocol: The effect of soluble recombinant Bax and Bcl-2 on the integrity of sympathetic neurons and sheep erythrocytes was tested. Ten μM Bax protein was added to serum-free medium of sympathetic neurons. […] (see FIG. 7B).

Bax = target: T1, Bax (Homo sapiens, UniProt Q07812); assay: Inhibition of Bax-induced release of carboxyfluorescein from liposomes; format: biochemical; conditions: control protein preincubated with liposomes before Bax 70 nm
T1 construct: GST (pGEX2T, thrombin site) (N, cleaved yes); made in house; host or cells: E. coli PR745
T1 sequence (Q07812 with tags, fused parts or gaps limits assumed): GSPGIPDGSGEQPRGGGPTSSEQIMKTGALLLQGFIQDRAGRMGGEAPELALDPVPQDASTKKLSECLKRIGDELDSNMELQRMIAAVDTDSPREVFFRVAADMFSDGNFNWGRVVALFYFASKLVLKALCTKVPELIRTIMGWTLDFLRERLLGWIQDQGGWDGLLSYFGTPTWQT
Protocol: To determine whether Bax was a pore-forming protein, a study was undertaken to determine whether Bax could trigger the release of liposome-encapsulated carboxyfluorescein. […] The liposomes were dialyzed for 24 hours against PBS and diluted to 8 ml. For analysis at acidic pH, fluorescence of released dye was measured after adjustment of pH to 7.5 by addition of 1 M Tris-HCl pH 7.5.
In each test 20 μl of liposomes containing 20 mM carboxyfluorescein was diluted in 1 ml of PBS (pH 7.5) and 5 μl of purified protein was added at the time indicated by the arrow. Incubation was performed at room temperature. Final Bax concentrations are indicated for each curve (see FIG. 8A). Bcl-2 was tested at 70 nM. Each curve of FIG. 8A was normalized by subtraction of the initial fluorescence value obtained at time 0.
Liposomes (20 μl in 1 ml PBS) were first incubated (15 min at room temperature) with Bcl-2 or with a control protein (stathmin) before addition of Bax (70 nm) to the liposome solution.
After addition of the compound, 80 nM Bax was added to the liposome suspension and the fluorescence measured with a spectrofluorimeter.

Molecule	effect on Bax-induced neuronal lysis upon coaddition (sympathetic neurons)	effect on Bax function (carboxyfluorescein efflux) (Bax)
ERK2: control protein [reference compound]	no effect	–
stathmin: unrelated control protein (protein, UniProt P16949 2-149, looked up) Stathmin: ASSDIQVKELEKRASGQAFELILSPRSKESVPEFPLSPPKKKDLSLEEIQKKLEAAEERRKSHEAEVLKQLAEKREHEKEVLQKAIEENNNFSKMAEEKLTHKMEANKENREAQMAAKLERLREKDKHIEEVRKNKESKDPADETEAD	no effect	no adverse effect
